# Measurements from patent US20110159025.
# Assays:
# [1] = tested on: HIV-1 capsid (CA), wild type, newly synthesized from HIVGFP (NL4-3 derived)
# [2] = target: HIV-1 capsid mutant G89V (pLaiΔEnv-GFP3 G89V) (UniProt P03348)
# [3] = target: HIV-2 capsid (CA) (UniProt P04590)
substance,measurement,setting,value
cyclophilin A (CypA),"CD86 expression in MDDC infected with HIVGFP(G)+SIVVLP(G), Cyclosporin A added at different times",[1],"Up to 24 h, Cyclosporin A (CsA) reduces CD86 expression"
same,CD86 up-regulation in MDDC after shRNA knockdown of CypA,[1],"prevented CD86 up-regulation following infection with HIV-1 (HDVIRESRFP(G), encoding the reporter RFP), but not following treatment with LPS"
same,MDDC activation (CD86 up-regulation) under Cyclosporin A,[1],"prevented MDDC activation following infection with HIVGFP(G) and SIVVLP(G), but not following treatment with LPS"
same,CD86 expression in infected MDDC,[2],resulted in substantially reduced CD86 expression at similar levels of infection
same,infection and activation of MDDC,[3],has the potential to infect and activate MDDC in a CypA-dependent manner
